In patent US20170096485A1 (Hoffmann-La Roche, published 2017):
Like-named read-outs stand apart in the source and are kept apart here.

Experiments:
[1] = target: T1, human mesothelin (human, UniProt Q13421 296-580); test: cell-based or functional assay
[2] = target: T1, human mesothelin; test: cell-based or functional assay; remark: listed apart in the source
[3] = target: T1, human mesothelin; test: cell-based or functional assay; remark: listed apart in the source
[4] = target: T1, human mesothelin; test: cell-based or functional assay; remark: listed apart in the source
[5] = target: T1, human mesothelin; test: cell-based or functional assay; remark: listed apart in the source
[6] = target: T1, human mesothelin; test: cell-based or functional assay; remark: listed apart in the source
[7] = target: T2, human CD3 (human, UniProt P07766 23-207); test: flow cytometry on Jurkat cells, 3.8 pM-300 nM
T2 construct: also called CD3 epsilon
Description: (§1) Briefly, Jurkat suspension cells were harvested, counted and checked for viability. Adherent AsPC-1 cells were harvested using Cell Dissociation Buffer (Gibco, #13151014), counted, checked for viability, and re-suspended at 0.9×10⁶ cells/ml in FACS buffer (100 μl PBS 0.1% BSA). […] Cells were re-incubated for further 30 min at 4° C. with the 1:100 pre-diluted AlexaFluor 647—F(ab′)₂ Fragment Goat Anti-Human IgG, Fey fragment specific secondary antibody (Jackson Immuno Research Lab, […] #109-096-008) and thereafter washed twice with cold PBS 0.1% BSA.
(§2) The stained cells were re-suspended in 100 μl 2% paraformaldehyde-containing FACS Buffer and incubated for 30 min at room temperature to fix the staining. Finally cells were centrifuged for 4 min at 350×g and 4° C., the supernatants were discarded and the cell pellets re-suspended in 200 μl FACS Buffer. Staining was analyzed by FACS using a FACS Canto II (Software FACS Diva). Binding curves and EC50 values were obtained using GraphPadPrism6 (FIG. 8A, binding to Jurkat cells, FIG. 8B binding to AsPC-1 cells).

[8] = target: T3, cynomolgus mesothelin (cynomolgus); test: flow cytometry on CHO cells transiently transfected to express cynomolgus MSLN
T3 construct: whole, on cells; also called cynomolgus MSLN

[9] = target: T1, human mesothelin; test: flow cytometry on MSLN-expressing AsPC-1 cells, 3.8 pM-300 nM, fit with GraphPad Prism6
Description: as §1, §2

[10] = target: T1, human mesothelin; test: cell-based or functional assay; remark: listed apart in the source
[11] = target: T1, human mesothelin; test: flow cytometry on CHO cells transiently transfected to express human MSLN

T1 sequence (Q13421 296-588): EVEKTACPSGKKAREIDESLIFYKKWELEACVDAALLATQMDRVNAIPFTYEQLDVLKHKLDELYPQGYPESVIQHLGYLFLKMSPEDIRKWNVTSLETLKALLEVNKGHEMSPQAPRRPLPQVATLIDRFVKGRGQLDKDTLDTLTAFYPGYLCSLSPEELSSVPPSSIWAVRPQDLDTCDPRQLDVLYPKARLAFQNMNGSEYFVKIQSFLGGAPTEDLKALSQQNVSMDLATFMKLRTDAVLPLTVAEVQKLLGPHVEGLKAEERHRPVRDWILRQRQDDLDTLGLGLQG
T2 sequence (P07766 23-207 limits assumed): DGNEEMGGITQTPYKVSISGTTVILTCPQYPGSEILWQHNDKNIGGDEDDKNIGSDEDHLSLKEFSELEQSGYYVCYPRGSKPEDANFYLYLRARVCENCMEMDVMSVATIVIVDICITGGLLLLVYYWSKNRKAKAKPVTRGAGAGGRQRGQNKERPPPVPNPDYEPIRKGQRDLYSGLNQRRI

B1: MSLN TCB molecule A: '2+1 IgG CrossFab, inverted' with charge modifications (VH/VL exchange in CD3 binder, charge modification in mesothelin binders) (bispecific antibody)
heavy 1: QVQLVQSGAEVKKPGASVKVSCKASGYSFTGYTMNWVRQAPGQGLEWMGLITPYNGASSYNQKFRGKATMTVDTSTSTVYMELSSLRSEDTAVYYCARGGYDGRGFDYWGQGTLVTVSSASTKGPSVFPLAPSSKSTSGGTAALGCLVEDYFPEPVTVSWNSGALTSGVHTFPAVLQSSGLYSLSSVVTVPSSSLGTQTYICNVNHKPSNTKVDEKVEPKSCDKTHTCPPCPAPEAAGGPSVFLFPPKPKDTLMISRTPEVTCVVVDVSHEDPEVKFNWYVDGVEVHNAKTKPREEQYNSTYRVVSVLTVLHQDWLNGKEYKCKVSNKALGAPIEKTISKAKGQPREPQVCTLPPSRDELTKNQVSLSCAVKGFYPSDIAVEWESNGQPENNYKTTPPVLDSDGSFFLVSKLTVDKSRWQQGNVFSCSVMHEALHNHYTQKSLSLSP
heavy 2: not shown
light 1: EVQLLESGGGLVQPGGSLRLSCAASGFTFSTYAMNWVRQAPGKGLEWVSRIRSKYNNYATYYADSVKGRFTISRDDSKNTLYLQMNSLRAEDTAVYYCVRHGNFGNSYVSWFAYWGQGTLVTVSSASVAAPSVFIFPPSDEQLKSGTASVVCLLNNFYPREAKVQWKVDNALQSGNSQESVTEQDSKDSTYSLSSTLTLSKADYEKHKVYACEVTHQGLSSPVTKSFNRGEC
light 2: DIQMTQSPSSLSASVGDRVTITCSASSSVSYMHWYQQKSGKAPKLLIYDTSKLASGVPSRFSGSGSGTDFTLTISSLQPEDFATYYCQQWSKHPLTFGQGTKLEIKRTVAAPSVFIFPPSDRKLKSGTASVVCLLNNFYPREAKVQWKVDNALQSGNSQESVTEQDSKDSTYSLSSTLTLSKADYEKHKVYACEVTHQGLSSPVTKSFNRGEC
- EC50 of T-cell mediated lysis of AsPC-1 cells, 48 h (LDH release) [1]: 0.146 nM
- EC50 of T-cell mediated lysis of BxPC-3 cells, 48 h (LDH release) [1]: 0.0577 nM
- EC50 of T-cell mediated lysis of NCI-H596 cells, 48 h (LDH release) [1]: 0.149 nM
- EC50 of T-cell mediated lysis of AsPC-1 cells, 48 h (LDH release) [2]: ~0.498 nM
- EC50 of T-cell mediated lysis of BxPC-3 cells, 48 h (LDH release) [2]: 0.258 nM
- EC50 of T-cell mediated lysis of NCI-H596 cells, 48 h (LDH release) [2]: 0.313 nM
- EC50 of CD69 up-regulation on CD4 T cells (% CD4+CD69+), AsPC-1 target cells (FACS) [3]: 0.513 nM
- EC50 of CD69 up-regulation on CD4 T cells (% CD4+CD69+), BxPC-3 target cells (FACS) [3]: 0.0598 nM
- EC50 of CD69 up-regulation on CD4 T cells (% CD4+CD69+), NCI-H596 target cells (FACS) [3]: 0.0774 nM
- EC50 of CD69 up-regulation on CD8 T cells (% CD8+CD69+), AsPC-1 target cells (FACS) [3]: 0.546 nM
- EC50 of CD69 up-regulation on CD8 T cells (% CD8+CD69+), BxPC-3 target cells (FACS) [3]: ~0.118 nM
- EC50 of CD69 up-regulation on CD8 T cells (% CD8+CD69+), NCI-H596 target cells (FACS) [3]: 0.145 nM
- EC50 of T-cell mediated lysis of AsPC-1 cells, 48 h (LDH release) [4]: 0.0762 nM
- EC50 of T-cell mediated lysis of BxPC-3 cells, 48 h (LDH release) [4]: 0.0881 nM
- EC50 of T-cell mediated lysis of NCI-H596 cells, 24 h (LDH release) [4]: 0.0251 nM
- EC50 of T-cell mediated lysis of NCI-H596 cells, 48 h (LDH release) [4]: 0.0971 nM
- EC50 of CD69 up-regulation on CD4 T cells (% CD4+CD69+), AsPC-1 target cells, 72 h (FACS) [5]: 0.131 nM
- EC50 of CD69 up-regulation on CD4 T cells (% CD4+CD69+), BxPC-3 target cells, 72 h (FACS) [5]: 0.00752 nM
- EC50 of CD69 up-regulation on CD4 T cells (% CD4+CD69+), NCI-H596 target cells, 72 h (FACS) [5]: 0.0352 nM
- EC50 of CD69 up-regulation on CD8 T cells (% CD8+CD69+), AsPC-1 target cells, 72 h (FACS) [5]: 0.0936 nM
- EC50 of CD69 up-regulation on CD8 T cells (% CD8+CD69+), BxPC-3 target cells, 72 h (FACS) [5]: 0.0307 nM
- EC50 of CD69 up-regulation on CD8 T cells (% CD8+CD69+), NCI-H596 target cells, 72 h (FACS) [5]: 0.0476 nM
- EC50 of T-cell mediated killing of AsPC-1 cells, 24 h (LDH release, human PBMCs, E:T 10:1) [6]: 0.308 nM
- EC50 of T-cell mediated killing of AsPC-1 cells, 48 h (LDH release, human PBMCs, E:T 10:1) [6]: 0.1 nM
- EC50 of T-cell mediated killing of BxPC-3 cells, 24 h (LDH release, human PBMCs, E:T 10:1) [6]: 0.0552 nM
- EC50 of T-cell mediated killing of BxPC-3 cells, 48 h (LDH release, human PBMCs, E:T 10:1) [6]: 0.0195 nM
- EC50 of T-cell mediated killing of NCI-H596 cells, 24 h (LDH release, human PBMCs, E:T 10:1) [6]: 0.1 nM
- EC50 of T-cell mediated killing of NCI-H596 cells, 48 h (LDH release, human PBMCs, E:T 10:1) [6]: 0.143 nM
- binding result [7]: binds
- EC50 [8]: 5.5 nM
- EC50 [9]: 1.44 nM
- EC50 of CD69 up-regulation on CD4 T cells (% CD4+CD69+), AsPC-1 target cells, 48 h (FACS) [10]: 0.174 nM
- EC50 of CD69 up-regulation on CD4 T cells (% CD4+CD69+), BxPC-3 target cells, 48 h (FACS) [10]: 0.0774 nM
- EC50 of CD69 up-regulation on CD4 T cells (% CD4+CD69+), NCI-H596 target cells, 48 h (FACS) [10]: 0.0412 nM
- EC50 of CD69 up-regulation on CD8 T cells (% CD8+CD69+), AsPC-1 target cells, 48 h (FACS) [10]: 0.137 nM
- EC50 of CD69 up-regulation on CD8 T cells (% CD8+CD69+), BxPC-3 target cells, 48 h (FACS) [10]: 0.0977 nM
- EC50 of CD69 up-regulation on CD8 T cells (% CD8+CD69+), NCI-H596 target cells, 48 h (FACS) [10]: 0.0783 nM
- EC50 [11]: 7.76 nM
